We go through 1 substance from patent US20190127434.

The data set deals with K6UbKMRC011.

For USP1 (ubiquitin-specific protease 1), the “cleavage by USP1, SDS-PAGE analysis (10 mg/L enzyme, 37 C, 12 hours)” value was “most of the refolded K6UbKMRC011 was cleaved by USP1 and separated into K6Ub and KMRC011”; the “cleavage by ubiquitin cleavage enzymes, SDS-PAGE analysis (10 mg/L enzyme, 37 C, 12 hours)” value is “the refolded K6UbKMRC011 was cleaved by the ubiquitin cleavage enzymes shown in Table 2 and correctly separated into K6Ub and KMRC011”; the “on-column cleavage, amino terminal sequence analysis of the released KMRC011” value was “the USPI clearly cleaved the immediate side of K6Ub of K6UbKMRC011 so that only KMRC011 was separated and purified”.
